Patent US20010029293A1

Target: CD18-independent counterreceptor for ICAM-R on Jurkat cells
Experiment: cell adhesion to coated shICAM-R, peptide 1-2 mg/ml

B1: ICAM-R peptide 230-234 (GDQML) (peptide)
peptide: GDQML
In the case of B1, the % Inhibition CD18-Independent Binding (Jurkat) is reported as 36%.

B2: ICAM-R peptide 72-76 (NGSQI) (peptide)
peptide: NGSQI
Work on B2 yielded a % Inhibition CD18-Independent Binding (Jurkat) of 17%.

B3: ICAM-R peptide 32-38 (peptide)
peptide: EKIALET
B3 was tested, and the % Inhibition CD18-Independent Binding (Jurkat) was 10%.

B4: ICAM-R peptide 271-276 (peptide)
peptide: GERREA
B4 gave a % Inhibition CD18-Independent Binding (Jurkat) of 11%.

B5: ICAM-1 peptide 228-232 (GDQRL) (peptide)
peptide: GDQRL
With B5 the % Inhibition CD18-Independent Binding (Jurkat) was 22%.

B6: ICAM-1 peptide 70-74 (DGQST) (peptide)
peptide: DGQST
In the case of B6, the % Inhibition CD18-Independent Binding (Jurkat) is reported as 9%.
